Source: the DeepSol protein solubility set

Assay: soluble on expression in E. coli; label from the status in PepcDB or PDB records

With “MKEIELKLKGEINRLTNKTFKFDERVGEGWFSAVYFLKTREIIEEFRPKSVVTMQFFQKENAVLCGTDEVIALLQTFAKNPEELEINSLKDGDKISPFETVLTIDGPYENFGFLEGVIDGILARRTSVATNVYNVVQAARSVDKEKPVIFMGDRDDHYTQQAGDGYAAYIGGMSAQATHAMNEWWGKSGMGTMPHALIQMFNGDVVEAAKAYHKKFPEDELVVLIDYNNDVITDALRVAREFGSTLKGVRVDTSRTMIDQYFIRHPEVLGTFDPRGVNPSLVFALRKALDEEGFQHVDIVVTGGFDEKRIREFEAQNVPVDIYGVGSSLLKMNIGFTGDNVELNGKPEAKAGRKYRPNPRLERVQLEKREDM” as the sequence, how does the “soluble on expression in E. coli” value read?
Its value is “not soluble”.

For “MARVLVVDDAAFMRMLLKKILTQAGHEVVGEASNGKEAVEKYKQLKPDLVTMDIVMPEMDGITAVKEIMKIDPNAKIIMITAVGQEAKVMEALKSGAKGYIVKPFQAQKVIEEVNRVLSS”, which “soluble on expression in E. coli” value is on record?
The value was “soluble”.

For “AEQKTLHIYNWSDYIAPDTVANFEKETGIKVVYDVFDSNEVLEGKLMAGSTGFDLVVPSASFLERQLTAGVFQPLDKSKLPEWKNLDPELLKLVAKHDPDNKFAMPYMWATTGIGYNVDKVKAVLGENAPVDSWDLILKPENLEKLKSCGVSFLDAPEEVFATVLNYLGKDPNSTKADDYTGPATDLLLKLRPNIRYFHSSQYINDLANGDICVAIGWAGDVWQASNRAKEAKNGVNVSFSIPKEGAMAFFDVFAMPADAKNKDEAYQFLNYLLRPDVVAHISDHVFYANANKAATPLVSAEVRENPGIYPPADVRAKLFTLKVQDPKIDRVRTRAWTKVKSGK”, which “soluble on expression in E. coli” value is on record?
The value was “soluble”.

Which “soluble on expression in E. coli” value does the source give for “MEAVHCFRCYKFPSKQIEFYLTNCMHMFCIECERLCHPPEEEPLKCIQCSKTPIRIVKMGPELPMTIKSMFTPISEEINQYTRDLTRVLTFQHRQRASLSTFLERKVAAFDRLRDAYSEEKTKKEHYKKQLEEAYHLLKSKEHEISKLKKQLAEQAPPPQTPPRSNSLKVASSRSLETPSMMRVFSDSMYETPVQIQRRFTKAQAKAEAEAEAPAKSPGSKAQTTKCTSNYQSHPPASFETPIHHPPKTSMGFTTPANPPHMFPYLKKHEAQREKHKEHRNSQ” here?
The value was “not soluble”.

With “MSSQIPFTVDHVGSFLRPETIKKARKKVQAGALSQAELRLIEDEEIKALVAKQKAGGLRGITDGEFRRGFWHIDFLEGLNGVTGYIPETGYNQTFHGKAAPAYNIRVVDKISFPTQHPFLEDFSFLKEVVEVGDGTVAKATIPSPTMILRQEILSNDGTSRIQTIYPEIGAFYKDLAQTYKDAIAAFYERGCRYLQFDDTNWAFLADQTKQEELRAKGIQPEEIAQVCTTIINEALAGKPEDLTVTTHICRGNHASSWLFSGGYEPIAKELFATNYDGFFLEYDSDRAGDFSPLRHWQNNGSKVVLGLVTSKFPELEETEQVKARIEEAQQFVPLENLSISPQCGFASTEEGNRLTEKEQWRKVQLLQEIAREVWLEHHHHHH” as the sequence, how does the “soluble on expression in E. coli” value read?
The value was “soluble”.

Which “soluble on expression in E. coli” value does the source give for “MTTKHSRTPGRPRQFDPEQAIETAQHLFHSRGYDAVSVADLTKAFGINPPSFYAAFGSKLGLYTRVLKRYRMTDAIPLGALLRHDRPTAKCLIDVLMEAARRYAADPDATGCLVLEGAHCNDKPAREAACEFYIAAENLIRTYVAMRYPQEADRTTDFMGTLMAGLSAKARAGYGLERLQESVLLAGDVLERLLPD” here?
The value was “not soluble”.

With “MKVTITANAPLSAGAMAVKKEAENANVFAALLAHKQQELLPAGAETSLFQEESSKNKEPDWQNGGMETGAAGQPSSAEKKPAQIESLWLAPSIMTALAVAPISAAAGAPLLEADQQAEGKTSDHWTFPFVGAMNGEETIAAQPAADEAGFERAFITDGRKSGHIDAESGSPSSGKTGMFPPLLSDGDQRPFHEQGGNRTVVALPNEASPVRPAGEKDVSLPKRGDKGHGGEATPSFTTPPALLSPSSSSVGLVGEMPASAGGSVADQVAHALRSARWMKLPNGVMQLVIRLHPEHLGTVTVKMTEEGGKLAAKLLVANDAVKELLYAHLPQLAQQLDASSITVEKWTVWSDYDSPAMPPYSGNRQGGQQQGESRQKQKREPSSSFPFALDGIEADA” as the sequence, how does the “soluble on expression in E. coli” value read?
The value was “not soluble”.

With “MECRLGCGACCIAPSITSFIPGMPNGKPAGVRCVQLNEENLCKLFGKAERPKVCHQFSACPDVCGSTSEQAIQTITELESMTLLEHHHHHH” as the sequence, how does the “soluble on expression in E. coli” value read?
The value was “not soluble”.

Which “soluble on expression in E. coli” value does the source give for “MGSDKIHHHHHHMRILFVTEYYPPIHMGGAEISLKILVNKLAKLGHEVTVITPNYTKYKTETEISKNLRVIRFKSWRYFLFKKQLRKISSEIYLRKKSSYYFQLNGYIKLSSFEIMKVVKELLQKEDFDVIHANNLESILGLSKLQVNTKVAHLRDFALLCWNRGLNNNGKLCEGCSLTNIRQCMGANYILGSALVHEINKRKNVLGKFDKILAISNFVKMEFVKRLNIPTEKISVLYNPITQEIVSNISKEEARQYLNLPEDKTIVLFVGTLTELKGAHLIPKIAKELPEHLFVVVGDGPLRKMFTEFPLENVLYVGYQPMEILRHYYKASDILLVPSLWHEPFGRVIIEGAANGCYVVGSDKGAIPEIIHWIGYGTSVPPQSKYFVEAIKNAPQTTKHEKLKIKIINYSHKYAEKFIKAIME” here?
The value was “not soluble”.

With “MPRIRCERCARPASHCLCALIPSLPSRTRVLVLQHPSEVGHALNTAGLAVLGLCNAELRVGERFAEETWRVPGYRACLLFPGEQARALAEMAAEAAGEPLLLVVPDGTWRKARKLLHLNPALAALPRVSLAEGMASRYRLRKAPGEGALSTIEAIAAALDELEAPRTHEALLKPFDALIEGQIAAMGEDTYRRNHLSQERRRRLEHHHHHH” as the sequence, how does the “soluble on expression in E. coli” value read?
Its value is “soluble”.

Which “soluble on expression in E. coli” value does the source give for “MAHHHHHHMQAITASTPSQQYSVGAGIEKPLGVTTSADWMTMYERKPHGNSTLFELEAMVAKRMEFLAWVDQQINSPQAKNFDSVLDAIIARLPEERRSSAATDGSRVKMISLGYDETAAGGCSDRRSSSRGSTGSAAGANQAASIVFAPEEDVTSHLLCRFAFCMSERWRDWLVRTERVLLTARIKMEMAKRPFTFLVDLMKRNGLPCAPLTDKQLADPMLQEYLEYRRVKAESARESEGRVENYYAVPLSLATRLIKKRYVLCRAGQAILFRDQVQEVFLTVFCARLNRGLHNAYLARVKQQALEEETAKSTVMAMLDAFLQQFISDPVDTLQEGVAGSVRARDVQRLAQAHFPPCMRAIDWHLRREGHLKHHGRFMYGLFLKSIGLSLEDSLELFATLMKVKGGGSVEAFAKTAYGYNVRHNYGMEGKKMSYSSASCATILGLPPVVDQHDCHGCPFRFRDEGALRTMLGKETENPKGCDYPSVRPTPGDIEDIVSDSKAQHYTRACYKYFMATHPGARRDTLFRSPYEYYSVSLEFETPSDGTESARPSAVPGKRTSVVLNEDVLRFRTSP” here?
Its value is “not soluble”.

Which “soluble on expression in E. coli” value does the source give for “MGSSHHHHHHSSGLVPRGSHMTVYTASVTAPVNIATLKYWGKRDTKLNLPTNSSISVTLSQDDLRTLTSAATAPEFERDTLWLNGEPHSIDNERTQNCLRDLRQLRKEMESKDASLPTLSQWKLHIVSENNFPTAAGLASSAAGFAALVSAIAKLYQLPQSTSEISRIARKGSGSACRSLFGGYVAWEMGKAEDGHDSMAVQIADSSDWPQMKACVLVVSDIKKDVSSTQGMQLTVATSELFKERIEHVVPKRFEVMRKAIVEKDFATFAKETMMDSNSFHATCLDSFPPIFYMNDTSKRIISWCHTINQFYGETIVAYTFDAGPNAVLYYLAENESKLFAFIYKLFGSVPGWDKKFTTEQLEAFNHQFESSNFTARELDLELQKDVARVILTQVGSGPQETNESLIDAKTGLPKE” here?
The value was “soluble”.

Which “soluble on expression in E. coli” value does the source give for “MDRVALKPFRRIAVILLAGAVIATSTSCSRDERKKEEEKHLESMMSILVQVQKNLGRIRQKEAVVVRLSSDVEGRKPKSAEQIGREINTNIRFIDSTLSASKNLVATLEKQNHESQYRIAALDRMTGQLKGELDKKELELGAMKREIAKLNRQIARLTNTVDVMDEAISDQEDQMVKAYYVVGTVDQLVSKGILVPPGPFSRFFGMRPVLANDFDLRPFRQVDITETKDIYFDKPVSRLHVITPHTKGSYELVGGKTSSLLLIRNEAEFWKKSRCLVIVVE” here?
Its value is “not soluble”.

With “MGLERFNGVRVDDAERALLTCCRSLRWARRVADHRPYPDLDALLAAADEAAYDLAPADLAEALAGESLTLLPDDAYSVAHTALSAAHAAYESRFGHVFVICLDNAPPGEALDQVLAGIRSRLTNDREEERVLAAEELRRLARGRLARLVRDFSPRPALQRTPLEHHHHHH” as the sequence, how does the “soluble on expression in E. coli” value read?
The value was “not soluble”.
